# ± gives the uncertainty stated by the source.
# B1: Chromodomain-helicase-DNA-binding protein 4, residues 365 to 417; numbered along this chain, Q14839 (parent)
# chain: YETDHQDYCEVCQQGGEIILCDTCPRAYHMVCLDPDMEKAPEGKWSCPHCEKE
# Variants of: B1
# Assay: abundance fitness (aPCA) (normalised: wild type 0, dead -1); higher = more abundant; growth selection in yeast, the domain comes from the species named
# Conditions: Homo sapiens
row,Variant,abundance fitness
1,E51N,-0.357 ± 0.48
2,E51W,-0.338 ± 0.11
3,E51P,-0.007 ± 0.12
4,E51L,-0.275 ± 0.11
5,E51M,-0.03 ± 0.15
6,E51I,-0.331 ± 0.22
7,E51G,0.132 ± 0.091
8,E51S,-0.127 ± 0.11
9,E51T,-0.174 ± 0.15
10,E51Y,-0.221 ± 0.23
11,E51D,-0.111 ± 0.28
12,E51Q,-0.371 ± 0.2
13,W45S,0.098 ± 0.1
14,W45T,0.085 ± 0.16
15,W45M,0.179 ± 0.15
16,W45Q,0.109 ± 0.14
17,W45H,-0.119 ± 0.21
18,W45K,-0.483 ± 0.27
19,W45F,-0.159 ± 0.15
20,W45I,0.057 ± 0.19
21,W45V,0.115 ± 0.11
22,W45R,-0.162 ± 0.09
23,W45N,-0.051 ± 0.18
24,W45G,0.025 ± 0.085
25,W45P,-0.161 ± 0.22

row,Variant,abundance fitness
1,W45L,-0.218 ± 0.097
2,W45Y,-0.207 ± 0.18
3,W45D,-0.313 ± 0.2
4,W45E,0.083 ± 0.16
5,C47M,-0.882 ± 0.17
6,C47G,-0.867 ± 0.11
7,C47L,-0.75 ± 0.14
8,C47F,-0.565 ± 0.24
9,C47V,-1.11 ± 0.16
10,C47N,-0.5 ± 0.27
11,C47H,-0.477 ± 0.33
12,C47W,-1.09 ± 0.16
13,C47P,-0.657 ± 0.17
14,C47K,-0.81 ± 0.2
15,C47T,-0.43 ± 0.15
16,C47D,-0.468 ± 0.17
17,C47Q,-0.833 ± 0.21
18,C47R,-0.848 ± 0.11
19,C47S,-0.99 ± 0.14
20,C47E,-0.331 ± 0.14
21,C47A,-0.756 ± 0.12
22,C47Y,-0.811 ± 0.22
23,P48V,-0.04 ± 0.11
24,P48I,-0.308 ± 0.27
25,P48C,-0.001 ± 0.19

row,Variant,abundance fitness
1,P48F,-0.165 ± 0.22
2,P48D,-0.16 ± 0.19
3,P48S,0.058 ± 0.1
4,P48N,-0.678 ± 0.3
5,P48H,-0.057 ± 0.19
6,P48Q,-0.133 ± 0.15
7,P48T,-0.132 ± 0.12
8,P48L,-0.126 ± 0.1
9,P48W,-0.622 ± 0.14
10,P48Y,-0.101 ± 0.16
11,P48A,-0.002 ± 0.11
12,P48M,0.07 ± 0.12
13,P48E,-0.151 ± 0.12
14,P48R,0.063 ± 0.1
15,P48K,-0.29 ± 0.18
16,P48G,-0.068 ± 0.098
17,S46G,-0.23 ± 0.086
18,S46P,-0.258 ± 0.14
19,S46Y,-0.003 ± 0.16
20,S46D,-0.168 ± 0.14
21,S46A,-0.18 ± 0.11
22,S46L,-0.168 ± 0.1
23,S46N,0.039 ± 0.17
24,S46E,-0.039 ± 0.13
25,S46H,0.068 ± 0.3

row,Variant,abundance fitness
1,S46K,-0.65 ± 0.18
2,S46Q,0.054 ± 0.14
3,S46R,-0.137 ± 0.092
4,S46W,0.014 ± 0.12
5,S46I,-0.489 ± 0.23
6,S46F,0.125 ± 0.15
7,S46T,-0.07 ± 0.15
8,S46C,0.031 ± 0.16
9,S46M,-0.197 ± 0.15
10,E53D,-0.551 ± 0.45
11,E53N,-0.57 ± 0.38
12,E53V,-0.356 ± 0.19
13,E53I,-0.335 ± 0.39
14,E53Y,-0.323 ± 0.39
15,E53G,-0.252 ± 0.13
16,E53L,-0.133 ± 0.32
17,E53C,-0.263 ± 0.25
18,E53T,-0.717 ± 0.41
19,E53H,-0.378 ± 0.33
20,E53A,-0.207 ± 0.16
21,E53R,-0.04 ± 0.15
22,E53W,0.113 ± 0.22
23,E53S,-0.023 ± 0.16
